Data reported in publication PMC10835137 (2024).

T1: IRBP 271-290 (P2) peptide on I-A^b (mouse)
T1 peptide: QTWEGSGVLPCVG

B1: 4 (TCR)
alpha TRAV9-4 TRAJ31 CDR3: CAVSPHSNNRIFF
beta TRBV2 TRBJ2-7 CDR3: CASSQEGLGGLGEQYF
B2: 2 (TCR)
alpha TRAV12-2 TRAJ47 CDR3: CALSVYANKMIF
beta TRBV23 TRBJ2-4 CDR3: CSSSQTTNQNTLYF
B3: 1 (TCR)
alpha TRAV12D-3 TRAJ13 CDR3: CALRAGSGTYQRF
beta TRBV3 TRBJ2-7 CDR3: CASSLAGTGVYEQYF
B4: 5 (TCR)
alpha TRAV9-2 TRAJ31 CDR3: CVLSAGNNRIFF
beta TRBV20 TRBJ2-2 CDR3: CGASGPANTGQLYF
B5: 3 (TCR)
alpha TRAV16N TRAJ15 CDR3: CAMREGGGGRALIF
beta TRBV15 TRBJ2-3 CDR3: CASSWGRGAETLYF

Target: T1, IRBP 271-290 (P2) peptide on I-A^b
Experiment: multimer staining

Binder | binding result
B1 | recognises
B2 | recognises
B3 | recognises
B4 | recognises
B5 | recognises
